From paper PMC1188515 come the findings set out here.

As a reminder, the Kd is the concentration at which binding is half-saturated. A lower Kd goes with higher affinity.

Data set [1] concerns the target T1, ScMre11p (Saccharomyces cerevisiae, UniProt P32829 1-692).
T1 sequence: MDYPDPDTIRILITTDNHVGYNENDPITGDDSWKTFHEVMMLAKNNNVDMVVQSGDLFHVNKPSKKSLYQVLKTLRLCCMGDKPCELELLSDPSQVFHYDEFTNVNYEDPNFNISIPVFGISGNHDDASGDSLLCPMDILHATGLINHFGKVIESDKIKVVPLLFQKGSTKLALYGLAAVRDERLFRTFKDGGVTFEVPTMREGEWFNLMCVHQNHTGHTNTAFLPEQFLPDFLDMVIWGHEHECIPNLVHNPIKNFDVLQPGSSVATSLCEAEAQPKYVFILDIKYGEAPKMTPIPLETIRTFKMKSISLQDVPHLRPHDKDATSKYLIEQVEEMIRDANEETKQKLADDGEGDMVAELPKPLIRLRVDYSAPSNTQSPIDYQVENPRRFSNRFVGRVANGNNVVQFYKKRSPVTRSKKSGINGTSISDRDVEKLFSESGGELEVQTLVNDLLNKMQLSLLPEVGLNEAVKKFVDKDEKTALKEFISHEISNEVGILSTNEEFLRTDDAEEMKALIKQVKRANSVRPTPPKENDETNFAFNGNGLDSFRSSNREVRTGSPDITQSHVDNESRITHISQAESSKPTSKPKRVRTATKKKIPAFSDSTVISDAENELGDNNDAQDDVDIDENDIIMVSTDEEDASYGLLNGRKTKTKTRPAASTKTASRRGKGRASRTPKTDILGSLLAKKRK
Description: EMSA.

In data set [2] the target is T1, ScMre11p. Description: EMSA. The source holds these as a separate data set.

B1: 6G3 G4 DNA (structured_DNA)
DNA: AATTCTGGGTGTGTGGGTGTGTGGGTGTGTGGGTGTGTGGGTGTGTGGGTGTGG
Take B1: the binding result with ScMre11p [1] is on record as “binds”.
In the data set with ScMre11p [2], AATTCTGGGTGTGTGGGTGTGTGGGTGTGTGGGTGTGG (structured_DNA) [4G3 G4 DNA] registered a Kd of 70 nM.
